B1: Hammerhead Ribozyme (parent)
chain: ACCGGAUGUGCUUUCCGGUCUGAUGAGUCCGUGAGGACGAAACAG

Variants of: B1
Experiment: self-cleavage, relative activity (ratio to wild type); higher = more cleavage; co-transcriptional
With ACCGGAUUUGCUUUCCAGUCUGAUGAGUCCGUGAGGACGAAACAG the self-cleavage was 0.652. For ACCGGAUGUGCUUUCCGGUCUGAUGAGUCCGUGCGGACGAACCAG, the self-cleavage was 0.397. ACCGGAUGUGCUUUCAGGUCUGAUGAGUCCGUGAGGACGAAACAC gave a self-cleavage of 0.501. ACCGGAUGUGCUUUCCGGUCUGAUGAGUCCGUGAGGACAGAACAG gave a self-cleavage of 0.383. For ACCGGAUGUGCUUUCCGGUCUUAUGAGUCCGUGAGGACCAAACAG, the self-cleavage was 0.316. In the case of ACCGGAUGUGCUUUCGGGUCUGAUGAAUCCGUGAGGACGAAACAG, the self-cleavage is reported as 0.42. ACCAGAUGUGCUUUCCGGUCUGAUGAGUCCGUGAGGACGUAACAG showed a self-cleavage of 0.325. Work on UCCGGAUGUGCUUUCCGGUCUGAUGAGUCCGUGAGGGCGAAACAG yielded a self-cleavage of 0.734. ACCGUACGUGCUUUCCGGUCUGAUGAGUCCGUGAGGACGAAACAG showed a self-cleavage of 0.716. ACCCGAUGUGCUUUCCGGUCUGAUGAGUCCGUGAGGACGAAACAU showed a self-cleavage of 0.4. Work on ACCGGAUGUGCUUUCCGGUCCGAUGAGUCCGUGAUGACGAAACAG yielded a self-cleavage of 0.727. Work on ACCGGUUGUGCUUUCCGGUCUGAUGAGUCCGUGAGGCCGAAACAG yielded a self-cleavage of 0.677. For ACCGGAUGUGCUUUCCGGUCAGAUGAGUCCGUGAGGAUGAAACAG, the self-cleavage was 0.401. With ACCGGAUGUGCUUACCGGUCUGGUGAGUCCGUGAGGACGAAACAG the self-cleavage was 0.351. For ACCAGAUGUGCUUUACGGUCUGAUGAGUCCGUGAGGACGAAACAG, the self-cleavage was 0.443. ACCGGAUGUGCUUGCCGGUCUGAUGAGUCCGUGAGGACUAAACAG gave a self-cleavage of 0.359. Work on ACCGGAUGUGCUUUCCGGUUUGAUGAGUCCGUGAGGACGAAUCAG yielded a self-cleavage of 0.322. ACCGGAUGUGCUUGCCGGUCUGAUGAGUUCGUGAGGACGAAACAG gave a self-cleavage of 0.625. ACCGGAUAUGCUUUCCGGUCUGAUGAGUCCGUGAGGACAAAACAG showed a self-cleavage of 0.417. With ACCGGAUGUGCUUUCCGGUCUGAUGAGUCCGUGAGGACAAAAAAG the self-cleavage was 0.284. In the case of ACCGGAUGUGCUUUCCGGCCUGAUGUGUCCGUGAGGACGAAACAG, the self-cleavage is reported as 0.492. With ACCGGAUGUGCAUUCCGGUCUGAUGAGUCCGGGAGGACGAAACAG the self-cleavage was 0.878. Work on ACCGGAUGUGUUUUCUGGUCUGAUGAGUCCGUGAGGACGAAACAG yielded a self-cleavage of 0.817. With ACCGGAUGUCCUUUCCGGUCUGAUGAGUCCGUGGGGACGAAACAG the self-cleavage was 0.841. ACCGGAUGUGCUUUCCGGUCUGAUGGGUCCGUGAGGAGGAAACAG gave a self-cleavage of 0.332. Work on ACCGGAUGUGCCUUCCGGUCUGACGAGUCCGUGAGGACGAAACAG yielded a self-cleavage of 1.01. With ACCGGAUGUGGUUUCCGGUCUGAUGAGUCCGUGAGCACGAAACAG the self-cleavage was 0.998. ACCGGAUGUGCUUACCGGUCUGAUGAGUCCGAGAGGACGAAACAG gave a self-cleavage of 1.38. For ACCGGAUGUGCUCUCCGAUCUGAUGAGUCCGUGAGGACGAAACAG, the self-cleavage was 0.955. ACCGGAUGUGCUUUCCGGUCUUAUGAGUCCGUGAGGAUGAAACAG showed a self-cleavage of 0.335. In the case of ACCAGGUGUGCUUUCCGGUCUGAUGAGUCCGUGAGGACGAAACAG, the self-cleavage is reported as 0.355. In the case of ACCAGCUGUGCUUUCCGGUCUGAUGAGUCCGUGAGGACGAAACAG, the self-cleavage is reported as 0.232. ACCGGAUGUGCUUUCCGGUCUGAUGAGUCCGUGAGGACGCACCAG gave a self-cleavage of 0.369. In the case of ACCGGAAUUGCUUUCCGGUCUGAUGAGUCCGUGAGGACGAAACAG, the self-cleavage is reported as 1.52. Variant ACCGGAUGUCCUUUACGGUCUGAUGAGUCCGUGAGGACGAAACAG has a self-cleavage of 0.591. Work on ACCGGAUGUGCUCUCCGGUCUGAUGAGUCGGUGAGGACGAAACAG yielded a self-cleavage of 0.956. Work on ACCAGAUGUGCUUUCCGGUCUGAUGAGUCCUUGAGGACGAAACAG yielded a self-cleavage of 0.678. With ACCGGAUGUGCUUUCCGGCCUGAUGAGUCCGUGAGGACGAAUCAG the self-cleavage was 0.212. In the case of ACCGGAUGUUCUUUCCGGUCUGAUGAGUGCGUGAGGACGAAACAG, the self-cleavage is reported as 0.621. ACCGGAUGUGCUUACAGGUCUGAUGAGUCCGUGAGGACGAAACAG gave a self-cleavage of 0.592. For ACCGGAUGUGCUUUCCGGUCUGAUGAGUCCGGGAGGACGCAACAG, the self-cleavage was 0.372. In the case of ACCGGAUGUGCUUUCCGGUCUAAUGAGUCCGUGAUGACGAAACAG, the self-cleavage is reported as 0.328. Variant ACCGGAUGUGCCUUCCGGUCUGAUAAGUCCGUGAGGACGAAACAG has a self-cleavage of 0.352. ACCGGAUGUGCUUUCCGGUCUGAUCAGUCCGUGAGGACGAAAAAG gave a self-cleavage of 0.302. For ACCGGAUGUGCUUUCCGGUCUGAUGAGUCGGUGAGGACUAAACAG, the self-cleavage was 0.337. ACCGGAUGUUCUUUCCGGUCUGAUGAGUCCGUGAGCACGAAACAG gave a self-cleavage of 0.929. With ACCGGAGGCGCUUUCCGGUCUGAUGAGUCCGUGAGGACGAAACAG the self-cleavage was 1.18. UCCGGAUGUGCUUUCCGGUCUGAUGAGUCCGUGAGGACGAAACAA gave a self-cleavage of 0.409. In the case of ACCGGAUGUGCUUUCCGGUACGAUGAGUCCGUGAGGACGAAACAG, the self-cleavage is reported as 0.394. ACAGGAUGUGCUUUCCGGUCUGAUGAGUCCGUCAGGACGAAACAG showed a self-cleavage of 0.741. For AACGGAUGUGCUUUCCGGUCUUAUGAGUCCGUGAGGACGAAACAG, the self-cleavage was 0.34. For UCCGGAUGUGCGUUCCGGUCUGAUGAGUCCGUGAGGACGAAACAG, the self-cleavage was 0.753. ACCGGAAGUGCUUUCCGGUCUGAUGAGUCCUUGAGGACGAAACAG showed a self-cleavage of 1.26. Variant ACCCGAUGUGCUUUCCGGUCUGAUGAGUCCGUGAGGUCGAAACAG has a self-cleavage of 0.294. ACCGGAUAUGCUUUCCGGUCUGAUGAGUCCGUGAGGACGUAACAG gave a self-cleavage of 0.343. Work on ACCGGAUGUGCUUUCCGCUCUGAUGAGUCCAUGAGGACGAAACAG yielded a self-cleavage of 0.649. Work on ACCGGAUGGGCUUUCCGGUCUGAUGAGUCCGUGAGGCCGAAACAG yielded a self-cleavage of 0.805.

From the RNAGym collection of RNA variant scans (doi:10.7554/elife.80360)
